How the values were obtained:
[1] = target: T1, APJ receptor (Homo sapiens, UniProt P35414); assay: APJ receptor binding assay (competitive radioligand binding); conditions: negative control
T1 construct: purchased Perkin Elmer, Waltham, Mass; host or cells: transfected CHO cells (membrane fraction)
T1 sequence (P35414 1-380): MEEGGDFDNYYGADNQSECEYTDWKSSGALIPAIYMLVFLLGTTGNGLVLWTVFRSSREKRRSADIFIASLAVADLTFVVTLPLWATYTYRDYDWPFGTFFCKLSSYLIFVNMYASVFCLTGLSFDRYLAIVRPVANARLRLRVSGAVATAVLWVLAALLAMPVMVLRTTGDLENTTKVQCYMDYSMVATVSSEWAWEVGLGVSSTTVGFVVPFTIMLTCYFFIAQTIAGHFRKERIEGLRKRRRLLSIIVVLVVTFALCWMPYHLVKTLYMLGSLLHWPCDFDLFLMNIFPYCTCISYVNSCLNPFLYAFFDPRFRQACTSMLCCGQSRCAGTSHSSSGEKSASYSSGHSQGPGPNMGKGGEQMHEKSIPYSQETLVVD
Experimental: The binding was performed using competition with ^125I-labelled [Glp^65, Nle^75, Tyr^77]-apelin13 probe for binding to the APJ receptor in a membrane fraction from the transfected CHO cells (Perkin Elmer, Waltham, Mass.). Serially diluted peptide was incubated with membrane and probe for 1 hour at room temperature. The mixture was then filtered over a 1.2 um glass fiber type C filterplate (Millipore Corp., Billerica, Mass.), preblocked with 0.5% polyethylenimine. The plate was washed 4 times with 200 ul ice cold binding buffer and then another 4 times with ice cold 50 mM Tris-HCl, pH7.4, dried and counted with scintillation fluid. The data was analyzed with Graphpad Prism 4 (GraphPad Software, Inc, La Jolla, Calif.) using nonlinear regression.

[2] = target: T2, APJ receptor in a membrane fraction from transfected CHO cells (Perkin Elmer) (UniProt P35414 1-380, limits assumed); assay: competitive radioligand binding, 125I-[Glp65, Nle75, Tyr77]-apelin13 probe, APJ membranes from transfected CHO cells
T2 construct: whole, on cells; The receptor stood in a membrane fraction of transfected CHO cells, not on whole cells
T2 sequence (looked up): T1 sequence (P35414 1-380)
Experimental: The mixture was then filtered over a 1.2 um glass fiber type C filterplate (Millipore Corp., Billerica, Mass.), preblocked with 0.5% polyethylenimine. The plate was washed 4 times with 200 ul ice cold binding buffer and then another 4 times with ice cold 50 mM Tris-HCl, pH7.4, dried and counted with scintillation fluid. The data was analyzed with Graphpad Prism 4 (GraphPad Software, Inc, La Jolla, Calif.) using nonlinear regression.

With “α-MSH: 13 amino acid α-MSH peptide negative control” as the molecule, how does the “binding to APJ receptor (in words)” value [1] read?
Its value is “no binding”.

Does SYSMEHFRWGKPV (peptide, UniProt P01189 138-150, looked up, also called negative control) [13 amino acid α-MSH peptide] bind [2]?
Result: no binding

From US20140142049A1, “PEGYLATED APELIN AND USES THEREOF” (priority 2011, published 2014)
